Test results from patent US20170121381A1 (RAMOT AT TEL AVIV UNIVERSITY, published 2017).

Molecular target: T1, purified active human caspase-6 (human, UniProt P55212 24-179; P55212 194-293, limits assumed)
T1 sequence (looked up) 1: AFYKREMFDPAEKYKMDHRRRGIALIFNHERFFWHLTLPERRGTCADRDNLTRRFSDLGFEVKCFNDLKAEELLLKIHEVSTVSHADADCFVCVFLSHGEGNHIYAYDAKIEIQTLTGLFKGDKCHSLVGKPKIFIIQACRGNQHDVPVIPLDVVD
T1 sequence (looked up) 2: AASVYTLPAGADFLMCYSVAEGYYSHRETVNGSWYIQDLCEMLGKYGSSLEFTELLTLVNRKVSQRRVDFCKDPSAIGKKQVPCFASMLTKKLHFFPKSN
Assay: cell-based or functional assay

Binder: GRKKRRQRRRPPQSSEIVLDGTDN [ED11]
- Km of Michaelis-Menten curve, Caspase-Glo 6 assay with Z-VEID-aminoluciferin, 10 uM ED11: 3.3 fold
